In patent US10266631B2, “Method for preparing peptide-polymer conjugate with stabilized α-helix secondary structure and peptide-polymer conjugate prepared thereby” (INDUSTRY-ACADEMIC COOPERATION FOUNDATION, YONSEI UNIVERSITY, priority 2016, dated 2019):
* marks the point of attachment. Acryloyl = C=CC(=O)*

Assay: Circular dichroism (CD) spectroscopy of α-helix secondary structure
Assay type: physicochemical
Conditions: 25° C.
Description: CD spectra were recorded using a Chirascan circular dichroism spectrometer equipped with a Peltier temperature controller (Applied Photophysics Ltd.). The CD spectra of peptides were recorded at 190-260 nm.
The temperature was 25° C. and the peptide concentration was 6 μM.
The α-helix peptide substituted with an acryloyl group prepared in Preparation Example 1 (bisAAm-p53) was dissolved in a 10% HFIP solution (based on final concentration). After mixing with […] acrylamide, a peptide-polymer conjugate was prepared through free radical induced polymerization by adding ammonium persulfate (APS) and N,N,N′,N′-tetramethylethylenediamine (TEMED). The prepared 9 μM α-helix peptide multimer was diluted with a 0.2% HIFP solution.
Before CD spectrum measurement, HFIP was completely evaporated from the samples through centrifugation.

## Preparation Example 1: p53-derived peptide Ac-QSQQTFKNLWRLLKQN-NH2 with both lysine ε-amines (i, i+7) acryloylated; FIG. 16A (Ac-QSQQTFK(Acryloyl)NLWRLLK(Acryloyl)QN-NH2; SMILES C=CC(=O)NCCCC[C@H](NC(=O)[C@H](CC(C)C)NC(=O)[C@H](CC(C)C)NC(=O)[C@H](CCCNC(=N)N)NC(=O)[C@H](Cc1c[nH]c2ccccc12)NC(=O)[C@H](CC(C)C)NC(=O)[C@H](CC(N)=O)NC(=O)[C@H](CCCCNC(=O)C=C)NC(=O)[C@H](Cc1ccccc1)NC(=O)[C@@H](NC(=O)[C@H](CCC(N)=O)NC(=O)[C@H](CCC(N)=O)NC(=O)[C@H](CO)NC(=O)[C@H](CCC(N)=O)NC(C)=O)[C@@H](C)O)C(=O)N[C@@H](CCC(N)=O)C(=O)N[C@@H](CC(N)=O)C(N)=O)
10% HFIP solution (HFIP:water=1:9, v/v), peptide 6 μM (FIG. 4)
  α-helix secondary structure (CD spectrum): stabilized
Distilled water, peptide 6 μM (FIG. 3)
  α-helix secondary structure (CD spectrum): not stabilized but unfolded
